From IntAct's records for PubMed 16924104 come the findings set out here.

B1: Polyunsaturated fatty acid 5-lipoxygenase (Homo sapiens), P09917 (parent)
chain: MPSYTVTVATGSQWFAGTDDYIYLSLVGSAGCSEKHLLDKPFYNDFERGAVDSYDVTVDEELGEIQLVRIEKRKYWLNDDWYLKYITLKTPHGDYIEFPCYRWITGDVEVVLRDGRAKLARDDQIHILKQHRRKELETRQKQYRWMEWNPGFPLSIDAKCHKDLPRDIQFDSEKGVDFVLNYSKAMENLFINRFMHMFQSSWNDFADFEKIFVKISNTISERVMNHWQEDLMFGYQFLNGCNPVLIRRCTELPEKLPVTTEMVECSLERQLSLEQEVQQGNIFIVDFELLDGIDANKTDPCTLQFLAAPICLLYKNLANKIVPIAIQLNQIPGDENPIFLPSDAKYDWLLAKIWVRSSDFHVHQTITHLLRTHLVSEVFGIAMYRQLPAVHPIFKLLVAHVRFTIAINTKAREQLICECGLFDKANATGGGGHVQMVQRAMKDLTYASLCFPEAIKARGMESKEDIPYYFYRDDGLLVWEAIRTFTAEVVDIYYEGDQVVEEDPELQDFVNDVYVYGMRGRKSSGFPKSVKSREQLSEYLTVVIFTASAQHAAVNFGQYDWCSWIPNAPPTMRAPPPTAKGVVTIEQIVDTLPDRGRSCWHLGAVWALSQFQENELFLGMYPEEHFIEKPVKEAMARFRKNLEAIVSVIAERNKKKQLPYYYLSPDRIPNSVAI
partner: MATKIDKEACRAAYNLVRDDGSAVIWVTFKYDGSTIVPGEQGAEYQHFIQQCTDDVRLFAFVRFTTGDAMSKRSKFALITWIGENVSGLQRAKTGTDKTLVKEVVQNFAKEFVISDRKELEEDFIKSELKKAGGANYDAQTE

The variants in the experiment derive from B1. The settings on record: with cotl1_human COTL1, Q14019.
Take W14A;W76A;W103A: the “effect of a mutation on the interaction” value was “disrupting interaction strength”.
